# Measurements published in US8318640B2, “Methods for selective targeting” (Danisco US Inc., priority 2000, dated 2012).
# Square brackets hold non-standard residues; d marks the D form. Ends that are not written are not given here. 14C‑Gly = 14C-labelled glycine
# Legend:
# (h) TNF-α [1] = molecular target: T1, (h) TNF-α (Homo sapiens, UniProt P01375); assay: Selective targeting of a phage-displayed 7-mer library on TNF-α, PCR identification of bound clones; format: binding; design: purchased BioSource International; Camarillo, Calif; settings: number of multiple times this amino acid sequence occurred out of 24 clones sequenced; binds TNF-alpha and not SuperBlock
# T1 sequence (P01375 77-233 limits assumed): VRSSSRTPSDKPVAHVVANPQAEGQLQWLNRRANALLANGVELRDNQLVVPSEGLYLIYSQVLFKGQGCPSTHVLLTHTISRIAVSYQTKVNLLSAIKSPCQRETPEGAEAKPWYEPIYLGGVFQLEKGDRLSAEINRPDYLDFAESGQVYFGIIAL
# Procedure: A thin-walled PCR tube was coated with the target human (h) TNF-α (BioSource International; Camarillo, Calif.) by incubating 100 μl of 0.5 mg/ml purified TNF-α in PBS overnight at 4° C. in the PCR tube. Excess unbound TNF-α was removed, and the tube was coated overnight at 4° C. with 100 μl of SuperBlock™ blocking buffer (Pierce: Rockford, Ill.) in Tris buffered saline (TBS). The anti-target (SuperBlock™ blocking buffer) was prepared in separate PCR tubes coated overnight at 4° C. with 100 μl of SuperBlock™.
# Unbound phage were removed by washing the tube 5 times with 150 μl PBS containing 0.1% Tween-20 at room temperature. Low affinity binders were washed away by incubating with 60 μl of 0.2 M Glycine (pH 2.2) for 6 minutes followed by neutralization with 9 μl 1 M Tris-Cl (pH 9.1). The acid washed population was retained for further analysis. The tube was then washed again 3 times with 150 μl of PBS.
# To the remaining phage-peptides bound to the TNF-α, 54 μl of Lysis Buffer A (10 mM Tris-Cl, pH 8.4, 0.1% Triton-X100) and an AmpliWax™ PCR gem (Perkin Elmer, Norwalk, USA.) was added. The tube was heated at 95° C. for 15 min and then allowed to cool. The following PCR reagents were then added:
# PCR amplification was performed using 20 cycles of denaturation at 94° C. for 15 sec, annealing at 55° C. for 20 sec, and extension at 72° C. for 30 sec. The sequences of the primers (synthesized by GIBCO BRL) were: […]
# The PCR product (267 base pairs (bp)) was analyzed on an 8% polyacrylamide gel along with the PCR product from a single phage peptide clone (positive control) and molecular weight markers (FIG. 2). […] This was due to too much template (i.e. phage) in the PCR reaction, and can be alleviated by decreasing the phage concentration or by decreasing the number of PCR cycles (FIG. 3). To decrease the amount of the 500-700 bp diffuse band, the PCR product was diluted appropriately for subsequent PCR reactions from this starting material to generate more products for sub-cloning purposes. Once the desired product (267 bp) was amplified, it was digested with Eagl and Acc651 restriction endonucleases to produce a 45 bp fragment containing the DNA coding for the random peptide. The 45 bp fragment was then sub-cloned into the M13KE vector (New England Biolabs; Beverly, Mass.) at the EagI and Acc65I restriction sites using standard techniques (Sambrook, et al., (1989) supra). After ligating the 45 bp fragment into the M13KE vector, the ligation reaction was transformed into chemically competent ER2537 E. coli cells. The cells were made competent with calcium chloride using a standard protocol (Sambrook, et al., (1989) supra). The M13 DNA was isolated from various transformants using a modified protocol from New England Biolab's protocol for M13 DNA preparation and then sequenced. The modification includes the use of 96-well plates as opposed to tubes.
# (h) TNF-α [2] = molecular target: T1, (h) TNF-α; assay: IAsys biosensor binding and dissociation of phage clone on immobilized TNF-α
# Procedure: The binding and dissociation of phage clone A1, amino acid sequence: RYWQDIP; Table 1, (SEQ ID NO: 3) to TNF-α was monitored using an IAsys AutoPlus Biosensor following the Labsystems Affinity Sensors IAsys Protocol 2.4 ‘Immobilization to Protein Layer: Thiol coupling to avidin’ (Thermo BioAnalysis Corp. Franklin, Mass.). Two cuvettes were first coated with avidin and one (the control) was then blocked with biotin. This was followed by activation of the lysine groups. A 15 μl aliquot of a 1 mg/ml (h) TNF-α solution was added to each cuvette. […] After blocking and washing, phage clone A1, RYWQDIP (SEQ ID NO: 3) was added to give a final titer of 5×10^11 pfu/ml.
# The dissociation of the phage from the TNF-α is very slow with the dissociation constant estimated as koff<10^−4 sec^−1 (10 mM HEPES/0.05% Tween). Washing with a 10× buffer concentrate (at the 70 min time point) only removed a small portion of the phage.
# [3] = Ni-chelated peptide binding to collar soil on cotton or cotton alone, OPD/H2O2 absorbance assay
# Procedure: A phage peptide sequence HTFQHQWTHQTR, (SEQ ID NO: 27) that binds to collar soil on cotton was identified after five rounds of biopanning as described in example 5 except that phage peptides were eluted by acid after each round using the methods described in Scott and Smith (1990) Science 249:386. The selectivity (stain vs. cotton binding) and affinity (koff) were measured for the corresponding peptide binding to collar soil as follows: A 1 mM solution of Ni chelated GGHTFQHQWTHQTR (SEQ ID NO: 28) was incubated with collar soil on cotton or cotton alone for 90 minutes at room temperature with shaking in a microtiter plate. A control peptide chelate Ni GGH was also tested under the same conditions. After pipeting off the incubation solution from the well, fabric swatches were rinsed in 200 μL water with shaking for 3 minutes. The residual bound peptide was assayed by adding 200 μL o-phenylenediamine (OPD) and 50 μL of 100 mM H2O2 and measuring the absorbance of the oxidized OPD at 420 nm. As summarized in Table 5 and FIG. 7, the selectivity ratio of stain binding to fabric is less than or equal to ≦3:1 and the affinity as measured by koff=1×10^−3 sec^−1.
# [4] = Release of 14C-labeled peptide from collar soil on polyester cotton in Tide detergent, scintillation counting; format: binding
# Procedure: Soiled shirt collars (65% polyester: 35% cotton) containing the target (collar soil) and anti-target along with the control anti-target (unstained polyester:cotton from the same shirt) were cut to a diameter of 7/32″ and placed into a 96-well microtiter plate (Millipore Corp., […] Durapore membrane; Cat. No. MAGV N22 50). Serial dilutions of a 400 μM stock solution of a soil targeting peptide SISSTPRSYHWT (SEQ ID NO: 20) and a peptide control NFFPTWILPEHT (SEQ ID NO: 78) both terminally labelled with ^14C-glycine were added to 1 g/L Tide detergent solutions (Procter and Gamble, Cincinnati, Ohio) and 60 μL aliquots were placed into the wells of the microtiter plate. The plate was incubated with shaking for 30 minutes at 32° C. followed by suction filtering of excess unbound radiolabeled peptide (Vacuum manifold; Millipore Corp. Cat. No. MAVM 096 OR). The samples were rinsed three times with 200 μL of distilled water, with shaking in between rinses, over a period of about 40 minutes. The remaining radioactivity bound to the samples was quantitated by liquid scintillation counting in a Wallac microbeta counter. […] This corresponds to a rate constant for release of the soil targeting peptide koff≦2×10^−4 sec^−1.
# [5] = ELISA of biotinylated peptide binding to hair; design: species or system human; settings: 200 μM biotinylated peptide in 2% body wash; FIG. 9
# From the text: (§1) Peptide sequences identified in Examples 13 and 14 along with a random control peptide were C-terminally labeled with the sequence GGGK (biotin). The sequence LESTPKMK (SEQ ID NO: 115) contains the consensus sequence LEST and was isolated on hair. FTQSLPR (SEQ ID NO: 116) contains the consensus sequence TQSL and was isolated on skin. YGGFMTSE (SEQ ID NO: 117) is a control peptide.
# (§2) Dark brown hair (3″ long, 4 each), moistened with 2% body wash and pre-equilibrated human skin tissues, were placed in the wells of a 24 well plate. 1 ml of a 200 μM solution of the biotinylated peptide in 2% Neutrogena body wash was added to the hair and skin samples and incubated 30 min at room temperature with gentle agitation. The solution was then pipetted off and the hair and skin samples transferred with clean tweezers to a 50 ml conical tube, washed once with 50 ml of 2% body wash, twice with 50 ml of water, and once with 50 ml of PBS; each wash step took 5 min and was performed on a rotary shaker at 20 rpm. The hair and skin samples were then transferred with clean tweezers to a fresh 24 well plate where 1 ml of streptavidin conjugated horseradish peroxidase (diluted 1/1000 in PBS) was added for 1 hr at room temperature under gentle rocking. Excess streptavidin HRP was removed by washing twice with 50 ml of PBS (5 min, 20 rpm each) in a 50 mL conical tube. […]
# [6] = ELISA of biotinylated peptide binding to skin; design: species or system human; settings: 200 μM biotinylated peptide in 2% body wash; FIG. 9
# From the text: as §1, §2
substance,measurement,setting,value
TMLPYRP (peptides screened from a phage display random peptide library) [Clone T7],Frequency,(h) TNF-α [1],2
RYWQDIP (peptides screened from a phage display random peptide library) [Clone T1],Frequency,(h) TNF-α [1],8
same,koff (dissociation of the phage from the TNF-α),(h) TNF-α [2]; 10 mM HEPES/0.05% Tween,< 10^−4 sec^−1
same,binding of phage to immobilized TNF-α,"(h) TNF-α [2]; IAsys cuvette, final titer 5×10^11 pfu/ml",significant binding
GGHTFQHQWTHQTR (peptides screened from a phage display random peptide library),koff,"[3]; Ni-chelated peptide, dissociation from collar soil and the corresponding cotton fabric",0.001 s⁻¹
same,Affinity 10^−4 koff (sec^−1),"[3]; Table 5, Biopanning, 5 rounds of selection",10 10^−4 sec^−1
DMIMVSI (peptides screened from a phage display random peptide library) [Clone T3],Frequency,(h) TNF-α [1],3
SISSTPRSYHWT (peptides screened from a phage display random peptide library) [Clone C4],total radiolabel remaining bound to the stained fabric,"[4]; 1 g/L Tide, after rinsing for 40 minutes",greater than 50%
same,"koff, rate constant for release of the soil targeting peptide","[4]; 1 g/L Tide, collar soil on polyester cotton",≤ 0.0002 s⁻¹
ASTVGGL (peptides screened from a phage display random peptide library) [Clone T6],Frequency,(h) TNF-α [1],2
GSISSTPRSYHWT ([14C‑Gly]SISSTPRSYHWT),Affinity 10^−4 koff (sec^−1),"[4]; Table 5, Selective Targeting (PCR), 1 round of selection",≦ 2 10^−4 sec^−1
LESTPKMK (peptides screened from a phage display random peptide library),ELISA binding to hair,[5],binds to hair
FTQSLPR (peptides screened from a phage display random peptide library),ELISA binding to skin versus hair,[6],selectively targets skin and not hair
"NFFPTWILPEHT (peptides screened from a phage display random peptide library) [random peptide control, reference compound]",affinity or selectivity for stained fabric,"[4]; 1 g/L Tide, same assay, FIG. 6B",no affinity or selectivity
APEPILA (peptides screened from a phage display random peptide library) [Clone T2],Frequency,(h) TNF-α [1],7
ATFPNQS (peptides screened from a phage display random peptide library) [Clone T5],Frequency,(h) TNF-α [1],2
WTPKPTQ (peptides screened from a phage display random peptide library) [Clone T4],Frequency,(h) TNF-α [1],2
